# Target: Tsx nucleoside transporter of E. coli, on target cells (E. coli) (UniProt P0A927)
# Experiment: flow cytometry on cells
# Chain of UniProt P0A927 (P0A927 23-294): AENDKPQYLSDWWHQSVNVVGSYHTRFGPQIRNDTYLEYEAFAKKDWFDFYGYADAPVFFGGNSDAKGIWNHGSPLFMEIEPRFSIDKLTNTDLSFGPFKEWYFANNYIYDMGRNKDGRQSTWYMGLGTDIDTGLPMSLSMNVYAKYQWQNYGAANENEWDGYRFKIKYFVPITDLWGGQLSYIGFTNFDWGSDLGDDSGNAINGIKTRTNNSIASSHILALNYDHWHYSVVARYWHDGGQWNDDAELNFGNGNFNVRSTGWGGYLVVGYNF
substance,measurement,value
"CdiA^STECO31 (CdiA from Escherichia coli STEC_O31), wild type, A0A1S4NYE3 33-3253",percent of target cells bound,80%
